Reference: article PMC2877774, “Structural and Biochemical Bases for the Redox Sensitivity of Mycobacterium tuberculosis RslA” (Journal of Molecular Biology, 2010)
Values joined by “and” are separate entries in the source; they are usually repeats but may differ in a detail not shown here. Equal values may be shown once.

B1: Anti-σ domain (ASD) of Mycobacterium tuberculosis RslA (residues 1–108), Zn2+-bound (domain or fragment)
chain: MTMPLRGLGPPDDTGVREVSTGDDHHYAMWDAAYVLGALSAADRREFEAHLAGCPECRGAVTELCGVPALLSQLDRDEVAAISESAPTVVASGLSPELLPSLLAAVHR
notes: Anti-sigma-L factor RslA, Mycobacterium tuberculosis, cytosolic anti-sigma domain, residues 1-108; also called holo-RslA; Mtb RslA

Columns and labels:
[1] = target: the molecule itself; assay: SEC + other: dynamic light scattering
[2] = target: B1; assay: SPR; BIACORE 2000; RslA immobilised on a CM5 chip at 12 ng/mm2; σ^L, σ2^L, σ4^L as analytes; 20 mM Tris-HCl pH 7.8, 200 mM NaCl, 50 mM imidazole, 1 mM DTT (holo-RslA); conditions: both partners purified

B1
stoichiometry N [1]: 2 and 4

B2: Apo-RslA: anti-σ domain of Mycobacterium tuberculosis RslA (residues 1–108), Zn2+-free, oxidized (domain or fragment)
chain: MTMPLRGLGPPDDTGVREVSTGDDHHYAMWDAAYVLGALSAADRREFEAHLAGCPECRGAVTELCGVPALLSQLDRDEVAAISESAPTVVASGLSPELLPSLLAAVHR
modifications: disulfide bond between Cys54 and Cys57 in oxidized apo-RslA; Zn2+ removed
notes: For SPR the Zn2+ was removed on the chip with 10 mM H2O2 and 2 mM TPEN; in solution with 1 mM H2O2 and 5 mM TPEN; also called Zn^2+-free RslA; oxidized RslA
stoichiometry N [1]: 2 and 4

B3: σ2^L domain of Mycobacterium tuberculosis σ^L (domain or fragment)
chain: MARVSGAAAAEAALMRALYDEHAAVLWRYALRLTGDAAQAEDVVQETLLRAWQHPEVIGDTARPARAWLFTVARNMIIDERRSARFRNVV
Kd [2]: ~2000 nM
